Assay: soluble fraction after stress (log2 fold change); higher = more stays soluble; pooled small domains, quantitative proteomics
Conditions: stress: 50 degC
Outline: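 The stress applied to every library was 50°C. These custom libraries of small protein domains were pooled and measured at high throughput with quantitative proteomics as the read-out. Aggregation propensity is expressed as the base-two logarithm of the fold change in how much of each protein remains soluble. The higher the value, the more of that protein stays in solution.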

| Sequence | soluble fraction (log2) |
| --- | --- |
| HMNYTSEDIKLASELFFHLLNNRILPANDVLASQYYDNNEIREILENMAEEGGLRIFGTRENLHLVSNGE | -0.432 |
| HMHSFGLHVRNLRKKSNLTLSQLSNASGLSLSAISKIENNQISPSFINLIRLAEGLKMHIADLVTVK | -2.13 |
| HMENEIFVPKVFMDWYNKVDKSIKVFKAFNLIEKETDPRLKEWVEDNQDEFAKIWLGQLLPVV | -0.0598 |
| HMETIHEMVNRLSSEGFIKNEDGIWYLRDRRGDGTKWLKNPFFESTGEKDAFALIDHLKVNDELLSKLRK | -0.3 |
| HMLLSEPSVLKFNDDNSYEIVSGFLTEYKDKIVKIERRYKKATVKITVAGEEKEIKVSFVEDTE | -0.161 |
| HMSDHSSLAGKEGVAVTPLRPAGTAEIDGKRMDVVTMGDYIKAGDHIKVVKVEGNRIIVAKN | 0.0433 |
| HMFVEKDSIINKGNNSYNFVITDNNNKVLVEYNGLLPDLFKEEQGVVIEGRLKSDFIIHAFTVF | -0.209 |
| HMTQDFEPGGQVFSRGEWLTIIRVNKSNGAVSSVTTPNYSFLGYSGTMKVTPDRITDYKAPSAEEAAVAS | -0.281 |
| HMDAIAYLGSRLKEIRLKSGLSLREIARQLDVSPSFISQIENGKSQPSVATLYAFAKLLNVPVDVLFQPS | -1.05 |
| HMSSIFTRIIAGEIPSYKVAEDENYYAFLDINPLTKGHTLVVPKMEVDYIFDLDDKTLAGMMLFAKKG | -0.0969 |
| HMQLKFTDLRKEILRMIWEGHGPQKAYDLLNKLQQTNPSAKPATVYRALDFLIGNGFIHKVASLNAFVG | -0.668 |
| HMIIMVNLYQIWDKEVQGLDSVGAKPEQIEARRQAIAAHFESKARQAGMSSKDIYATLDNFDTYSRQKTS | -2.28 |
| HMVYFDDEELDRFAGRAADSYTSDETDEFRDVMLTLLPADVMPWTQSIEMRGILLPEQLRDELLML | -0.764 |
| HMLINPLDILRNFNLSLYDDSRDSASNKEIDEIFESIKTNNSHIFSTLKAYRIPLPIASLIIKKIIKITLE | -0.534 |
| HMSADKAEAAEASLKSFNLRLQAAAMEAGKTFAPVTADQYAEYKAAWGTYIRKGIEGLSESEKKTINVG | -0.03 |
| HMSKKIVLPAAITVKKFSETLDMPLGTVISELMKNGILATINERIDFETASIIAQDLGYEVSEEV | 0.173 |
| HMPKNRTDYVQDVLKSLGRPAHYKEITQIINAMLPKEAQYSAKSIQVVLGSSPLFIRVGTGTYALVE | -0.679 |
| HMFVGVDMAVKEEIGKEGVAFTDLRPAGKVSIGDDVYDAVSETGAFITRGTSVRVLKYQAGQVYVVK | -0.154 |
| HMNIILFLDELHRLLSDLPPEERNQAIKYYEDYFEDAGPENEQAILKELGSPQELANQIKATT | -0.627 |
| HMSKKTQKDEVVDLFLKTGNEPLHYKEISKKTGIIVHNVRRITGQNVVGKTDNPVFKRVSPGVYKLID | -0.546 |
| HMFMKNTEVALAIKGKFSNQTTITSKELVLFLSDLFPELSNKTIPWKINQLKAENLIYQTGRGIYTFN | -2.57 |
| HMRDTAKTLLAMEVVGENNKKNLQAFGIQKGDQNYQTAVVVRLMQKALMEGDTSAIRLIGELTGD | -0.197 |
| HMLPVFNYQVYRTHGLIYVYAKDNDSFDQIARSMGFKAKQLMKFNEVPEDFPLQAGDIVYLEKKKK | -1.42 |
| HMYMLYQQLADSLRDKIYEGTYTFGDKIPSERTLAATFGISHLTVRKALAILEEEGLLDRRQGNGTFVRV | -1.02 |
| HMPPNVLSEREQEVLQLAADGMSNKEMGSELYIAPTTVRDHMQSIMRKLQVNSRTAAAVAGLKLGLLD | -0.1 |

| Sequence | soluble fraction (log2) |
| --- | --- |
| HMTKIEYTEQEFNDFIQAYKNNRKMFPEDYIVKTQVVFINKGFSKSQADMIIAQIETRLRLQGE | -0.421 |
| HMDTIRINSGSTVKEVAEYLGIPVPEVIKKLMSMGELATLTKTLSDDHIEVLAEEFEKKIKIVHVGEEAD | 0.0343 |
| HMGTAVKAPMPGTILKVNVTAGQSVKAGDIMFILEAMKMENEIVAPSDGTVSQVVAAKGSSVATDDVLAYL | -0.0338 |
| HMINIFKVKKAMEEIFASEWEDSPYTDQKISQILWSRGFSVSTGLVEKYRGQMGVPDANSRLNLN | -2.38 |
| HMPHFGVVLQMDDWKTLRDRLEARDDIDWVMKPNLRFEGQPGEQATLFIRDPSGNALEFKGFADLSQVF | -0.348 |
| HMNIGEKIKKIRTQQNKSTYELADIINKNGFKISQSAISKIENGRKKIDIETLEEIAKALDIEVDLLIT | -0.14 |
| HMVSDISTQYQKIINEALDKQPEVKLADIVTMIKEQTSNKVQNGIVENVAKQMNGIEIIKIGQAKGVRRTT | 0.116 |
| HMISKTFEINEDNINNRLDIFLANQFDNLSRGIVQKLIESHSVSVSGNFVEKDYKLKLGDIIDVEINLS | -0.486 |
| HMAAEFERKNGIVYFFHSSEKPHLNYPHVHARYGEDTISISLRDFTVIGSFSSKKKQKEAVEYVKNK | -0.662 |
| HMVTLYDGFLSELRKRIPRGAELTNTLVDMLYIEREAVYRRLRGEVPFTFIEVMTVSKELGISLDNLAQA | -1.23 |
| HMERNAEDFAAKYQEIYQDMFRFALYTLKNRQEAEDVVSETVLDAWKGIEGLKNESAFSAWMFRILVNK | 0.152 |
| HMDANLGEIFKVYEQEIGALTPFVREEMLDAIDHYPRDWILDAIRESAKSNARNWKYTLAILKRWKAEG | -0.312 |
| HMIENMQEYVRHIRAAVSDRLDLTREVEDDEIREVISQIVAEESRQNYLSLGERQTVIETVFNSMR | -0.2 |
| HMRGPDLSKDFHEYISSQWMFFGRNAYQIAEQINKDTQLMSKYGKTTPSGVHYHIKQIQQEMEN | -0.398 |
| HMVISAKRMQDRRDSILDAAREAFARAGFEGTSIADIARRAGVSDGLVYRYFASKRDLLNAVLTA | -0.83 |
| HMLDLPVRTINGRQYYYYEVRNRETVYGLSKRLGVTREEIVRYNPSMADGLKRGAILYFPVDEFSDRI | -0.281 |
| HMDIFLPDVKGYDLIPSFRRHLPDIDVIAMTGYNTRALESAVRQQDVLFYMIKPFEASQLKEILEHLVK | -0.221 |
| HMTKIDYSINQIYSLRNIENITIVLKDKRSFTGKILKIYWQNGSKIILFTTETRNYKFKEYEISEIYKS | -0.268 |
| HMDTNAIIGLRIKNLRTEKKYTLKYLSENTGLSIGFLSQLERGMTSIAIDSLDKISKVLDVELSSFFT | -1.24 |
| HMRGSRIFSGDVSPLTLPANSPFFSGYTEFKPGDVYVERSATNIAMWEWKSQPGGYTWVKTADIA | -0.169 |
| HMSASEKLFEARKNLNIVNVLGKNPVDRYDIVKILKHGDHYHIYDSKGNEGITYTNPKSLYPEAEFGEYQG | 0.12 |
| HMKFIPPSLEEARAYFVEKGSSEPEAEKFVNHFDSIGWKVGRARTPMKKWKSAANNWIANNREWNQ | -0.407 |
| HMENNIRLSVPDTESGQRIDSYLAEQIPGLTRSAVQNLLAEQAVTIAGKAVKKNYKLLGGEDILVQLPEVR | 0.216 |
| HMDLAPLQTVDIAINYAKAAELAAILKSSEGGILSDRGGVTVDERTNTLLIRDTLESIDEARKTI | 0.122 |
| HMVVADFQNYTVKPKENLYSLTKTSGLSQEELVALNPELKNGVQEGMVIKLPAAVKLMAQPE | 0.15 |

| Sequence | soluble fraction (log2) |
| --- | --- |
| HMFTLNEIIGQKIRNARISAGLTLDELSKMTGISAAQLSSLETGYRRANIDTLYAIAKAIGIDVSNLLKY | -0.46 |
| HMSVHSAELKKLKAHLLGIIGRELETQPSTENREEMVRQILHQSYESLRLNLPMQLKEELFNEILAEVL | 0.353 |
| HMGPRKAGSEATRQKILDAAEILFAERGFHSVSVRDITTEAGVDVALINYHFGSKQLLFETVFMRR | -0.331 |
| HMNHTIEENDRVLILDPRGKKYLITVTNRVFHTNLGKLDISELIGKNYGDKIKSHMGKNFSILKPNLIDYI | -0.0858 |
| HMELPSDEHLDDISHLARIGHKKGLQEKIIQLEQQGLASAEFIQQLKTLTNNFQFEKIIQWVDSEL | -0.0426 |
| HMIKLTVRQQEILDLIARSIDQTGFPPTRAEIAAELGFKSVNAAEEHLQALARKGVIEMVPGISRGIRLVQ | -0.395 |
| HMEREKTYLMPDLIGRKAERVVPRLQASGFKVEDIRHVYYPGLEKGVIVRQSPPGGYPIQKRNLINLEVS | -0.333 |
| HMWSAREQVVNSLREAILTSELKAGERLVLSDLSARLGVSVTPIREALQSLEREGLVQLMPHQEAVVV | 0.155 |
| HMINKQPKDYEYFLEKWHFTQTEKHQLHNLILKLNIRYPNKDFLKITENLDNGKLVLKKLEERLSKT | -1.05 |
| HMNKVDEEKNAELVSTIQNKFSDVSAATKKKVKAFMAEHDIPNFKNADEIPTANLEAIVAMLNED | 0.229 |
| HMYMKTITEQFGERLKKIRTQKSLSQEQLSYLADIDRSYISDVERGARNISLENIYKLASALNIPPYLVLL | -0.273 |
| HMGLVVIGTEAGYPAEKAGILAGDRIRKLNGAAVPDYDTFLTALAARKGEPSAIELERDGKTLEVTVSPL | 0.0119 |
| HMEAAETAVVTGTIVNIRSGPTLDFEAFAQVKQGDRLPVLDKFYNWYYVKLPSGVNGWISGQLVRIEQ | -0.25 |
| HMGRPTLEQLLDRAQAMGVPRERYAAYADRRWGRGWRVNPHGRGRAWDELDRYRNDPAGYLDKIEVELNQL | -0.101 |
| HMPRELKVRDVSHQHAGHAGWREGGETHFEVDMKADVFAGTSRVAAHRMVNKVLANELASRVHALQLNLS | 0.0371 |
| HMLAQDVIVKQDGGTILSKVLEIGTQEIAYKKWNSQDGPVYKIAKDQVLSVNYQNGEVDRFA | 0.00732 |
| HMGSQLYTLEVEADEKISLIENNPLLIQKIYLKDNNLFSYKIASSSKTEIASIEKELEKNPSIKRLETA | -0.181 |
| HMETYTVPEVLGLTPEQAAQLPEVKDIFTLDVKEEGDFSDKPVGTIVRQSPTEGEHRKGDNLVIEVWLSV | -0.0593 |
| HMGDPSSERNIQKSIFILIGEKALSVQDISRSLGMPNDIIDKALISGVERNLWLSSDKGEYYL | -1.1 |
| HMGSIRDIIVQYLSKFDDPQPAAKIVEYVQQYRDTTESSIRSSMGSGDQFVQFSGGLYGLKDKTYAAWYSI | -0.321 |
| HMEKYTDDLEIAAEIARLETLMEGNGRVLIRPSGTEPLVRVMIEGNDIEQITKLAEDLAALLNKRF | -0.747 |
| HMYYSERILTILEERGISPYRVSKETGISQSVFSNWKRKPTSRITAANLERLADYLGLPVEVLTG | -3.45 |
| HMIPNPMTDRELEVLGLLASGKTYKQVARALDLSQSTVRNHLHNVYHKLNVVDRAQAVIVSRENGW | -0.289 |
| HMDDTRLLSEIGLSQRVLNALRARGIERVGQVLAMRPDQLLGIRNFGPRALQELRERLQENGYTEGPLFSG | 0.309 |
| HMATESYYVLKADVPAKTLVTQEMVEEIKVSKGGAPVNSIKIDNIKEKGVYTSIPLLKGDVLSASNTG | 0.00692 |

— the domain aggregation screens of Martell et al. (2025)
